# B1: Recombinant human decorin: recombinant human decorin (DC-12) (protein)
# chain: DEASGIGPEVPDDRDFEPSLGPVCPFRCQCHLRVVQCSDLGLDKVPKDLPPDTTLLDLQNNKITEIKDGDFKNLKNLHALILVNNKISKVSPGAFTPLVKLERLYLSKNQLKELPEKMPKTLQELRAHENEITKVRKVTFNGLNQMIVIELGTNPLKSSGIENGAFQGMKKLSYIRIADTNITSIPQGLPPSLTELHLDGNKISRVDAASLKGLNNLAKLGLSFNSISAVDNGSLANTPHLRELHLDNNKLTRVPGGLAEHKYIQVVYLHNNNISVVGSSDFCPPGHNTKKASYSGVSLFSNPVQYWEIQPSTFRCVYVRSAIQLGNYK
# modifications: single glycosaminoglycan chain of a chondroitin sulfate/dermatan sulfate type on serine-4
# B2: Decorin: recombinant decorin proteoglycan purified from transfected CHO cell media (protein)
# chain: B1 chain
# modifications: single glycosaminoglycan chain of a chondroitin sulfate/dermatan sulfate type on serine-4
# notes: recombinant decorin proteoglycan purified from transfected CHO cell media
# What was measured:
# [1] = biological target: T1, TGFβ-1 (Homo sapiens, UniProt P01137); test: affinity chromatography of 125I-TGFβ1 on control gelatin-Sepharose
# [2] = biological target: T1, TGFβ-1
# [3] = test system: CHO cells; test: [3H]thymidine incorporation (growth) in CHO cells; assay type: cell-based; settings: TGFβ-1 at 5 ng/ml
# Experimental: (§1) The ability of decorin to modulate the activity of TGFβ-1 was examined in [^3 H]thymidine incorporation assays. In one assay, an unamplified CHO cell line transfected only with pSV2dhfr (control cell line A in reference 1, called CHO cells here) was used. The cells were maintained in nucleoside-free alpha-modified minimal essential medium (e-MEM, GIBCO, Long Island, N.Y.) supplemented with 9% dialyzed fetal calf serum (dFCS) and [^3 H]thymidine incorporation was assayed as described (Cheifetz et al., Cell 48:409-415 (1987)). TGFβ-1 was added to the CHO cell cultures at 5 ng/ml. At this concentration, it induced a 50% increase of [^3 H]thymidine incorporation in these cells. Decorin or BSA was added to the medium at different concentrations. The data represent percent neutralization of the TGFβ-1-induced growth stimulation, i.e., [^3 H]thymidine incorporation, in the absence of either TGFβ-1 or decorin=0%, incorporation in the presence of TGFβ-1 but not decorin=100%. […] Decorin (.circle-solid.) BSA (.largecircle.).
# This was shown by gel filtration of the DEAE-isolated decorin under dissociating conditions. […] The fractions were analyzed by SDS-PAGE, decorin ELISA and cell growth assays, all described above. […] Shown are the ability of the gel filtration fractions to affect [^3 H]-thymidine incorporation by the CHO cells and the concentration of decorin as determined by enzyme immunoassay. […]
# [4] = test system: Mv1Lu cells; test: [3H]thymidine incorporation (growth) in Mv1Lu mink lung epithelial cells; assay type: cell-based; settings: TGFβ-1 at 0.5 ng/ml
# Experimental: Assay was performed as in FIG. 4A, except that TGFβ-1 was added at 0.5 ng/ml. This concentration of TGFβ induces 50% reduction of [^3 H]-thymidine incorporation in the Mv1Lu cells. The data represent neutralization of TGFβ-induced growth inhibition; i.e., [^3 H]-thymidine incorporation in the presence of neither TGFβ or decorin=100%; incorporation in the presence of TGFβ but not decorin=0%. […] This was shown by gel filtration of the DEAE-isolated decorin under dissociating conditions. […] The fractions were analyzed by SDS-PAGE, decorin ELISA and cell growth assays, all described above. Three protein peaks were obtained. […] Shown are the ability of the gel filtration fractions to affect [^3 H]-thymidine incorporation by the CHO cells and the concentration of decorin as determined by enzyme immunoassay. Shown also (arrows) are the elution positions of molecular size markers: BSA, bovine serum albumin (Mr=66,000); CA, carbonic anhydrase (Mr=29,000); Cy, cytochrome c (Mr=12,400); AP, aprotinin (Mr=6,500); TGF, [^125 I]TGFβ-1 (Mr=25,000).
# [5] = biological target: T2, TGF-β (Homo sapiens, UniProt P01137); test: Binding of 125I-TGF-β to HepG2 cells; settings: 250 pM [125I]TGF-β, 2 hours room temperature
# T2 sequence (P01137 279-390 limits assumed): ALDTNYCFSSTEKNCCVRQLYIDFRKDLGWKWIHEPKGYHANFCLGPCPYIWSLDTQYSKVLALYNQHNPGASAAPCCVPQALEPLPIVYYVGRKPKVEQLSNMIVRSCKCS
# Experimental: (§2) About 2.5×10^4 HepG2 cells or L-M(tk-) cells were incubated with 250 pM[^125 I]TGF-β in the presence of recombinant human decorin (DC-12), PT-71 (MBP), decorin fragments (PT-72, -73, -84, -85, -86 and -87) or anti-TGF-β antibodies for 2 hours at room temperature. Cells were washed with washing buffer (128 mM NaCl, 5 mM KCl, 5 mM […], 1.2 mM CaCl2, 50 mM HEPES, pH 7.5) four times before determination of bound CPM.
# [6] = biological target: T2, TGF-β; test: Binding of 125I-TGF-β to L-M(tk-) cells; settings: 250 pM [125I]TGF-β, 2 hours room temperature; proteins
# Experimental: as §2
# The activity of the peptides was evaluated using the L-M(tk-) TGFβ1 binding inhibition assay described in Example VII, except various concentrations of peptide were incubated with the cells and TGFβ1 instead of decorin and recombinant decorin fragments. The negative control was a synthetic peptide corresponding to the first 15 amino acids of decorin, which has the sequence […](SEQ ID NO. 21).
# [7] = biological target: T1, TGFβ-1; test: [3H]thymidine incorporation assay: neutralization of TGFβ-1-induced growth inhibition in Mv1Lu cells; assay type: cell-based, mink; set-up: contains a major band at 25 kd; This band represents the native TGFβ-1 dimer; settings: TGFβ-1 0.5 ng/ml
# Experimental: Assay was performed as in FIG. 4A, except that TGFβ-1 was added at 0.5 ng/ml. This concentration of TGFβ induces 50% reduction of [^3 H]-thymidine incorporation in the Mv1Lu cells. The data represent neutralization of TGFβ-induced growth inhibition; i.e., [^3 H]-thymidine incorporation in the presence of neither TGFβ or decorin=100%; incorporation in the presence of TGFβ but not decorin=0%.
# Target sequence in this assay (P01137 279-390 limits assumed, species assumed): as the sequence (P01137 279-390 limits assumed) above
# [8] = biological target: T1, TGFβ-1; test: Microtiter binding assay: [125I]-TGFβ-1 binding to decorin-coated wells and competition; set-up: contains a major band at 25 kd; This band represents the native TGFβ-1 dimer; purchased Calbiochem, La Jolla, Calif; settings: intact proteoglycans, 37° C. 4 hours (FIG. 3A)
# Experimental: The binding of TGFβ-1 to decorin was also examined in a microtiter binding assay. To perform the assay, the wells of a 96-well microtiter plate were coated overnight with 2μg/ml of recombinant decorin in 0.1M sodium carbonate buffer, pH 9.5. The wells were washed with PBS containing 0.05% Tween (PBS/Tween) and samples containing 5×10^4 cpm of [^125 I]-TGFβ-1 and various concentrations of competitors in PBS/Tween were added to each well. The plates were then incubated at 37° C. for 4 hours (at 4° C. overnight in experiments with chondroitinase ABC-digested proteoglycans), washed with PBS/Tween and the bound radioactivity was solubilized with 1% SDS in 0.2M NaOH. Total binding without competitors was about 4% under the conditions used. Nonspecific binding, determined by adding 100-fold molar excess of unlabeled TGFβ-1 over the labeled TGFβ-1 to the incubation mixture, was about 13% of total binding. This assay was also used to study the ability of other decorin preparations and related proteins to compete with the interaction.
# Decorin isolated from bovine skin and biglycan isolated from bovine articular cartilage (PGI and PGII, obtained from Dr. Lawrence Rosenberg, Monteflore Medical Center, N.Y.; and described in Rosenberg et al., J. Biol. Chem. 250:6304-6313, (1985), incorporated by reference herein), chicken cartilage proteoglycan (provided by Dr. Paul Goetinck, La Jolla Cancer Research Foundation, La Jolla, Calif., and described in Goetinck, P. F., in THE GLYCOCONJUGATES, Vol. III, Horwitz, M. I., Editor, pp. 197-217, Academic Press, NY). For the preparation of core proteins, proteoglycans were digested with chondroitinase ABC (Seikagaku, Tokyo, Japan) by incubating 500 μg of proteoglycan with 0.8 units of chondroitinase ABC in 250 μl of 0.1M Tris/Cl, pH 8.0, 30 mM sodium acetate, 2 mM PMSF, 10 mM N-ethylmalelmide, 10 mM EDTA, and 0.36 mM pepstatin for 1 hour at 37° C. Recombinant decorin and decorin isolated from bovine skin (PGII) inhibited the binding of [^125 I]-TGFβ-1, as expected (FIG. 3A). […] This notion was further supported by competition experiments with the mutated decorin core protein (not shown) and chondroitinase ABC-digested decorin and biglycan (FIG.3B). Each of these proteins was inhibitory, whereas cartilage proteoglycan core protein was not.
# Target sequence in this assay (P01137 279-390 limits assumed, species assumed): as the sequence (P01137 279-390 limits assumed) above
# [9] = biological target: T1, TGFβ-1; test: [3H]thymidine incorporation assay: neutralization of TGFβ-1-induced growth stimulation in CHO cells; assay type: cell-based; set-up: contains a major band at 25 kd; This band represents the native TGFβ-1 dimer; purchased Calbiochem, La Jolla, Calif
# Experimental: as §1
# Target sequence in this assay (P01137 279-390 limits assumed, species assumed): as the sequence (P01137 279-390 limits assumed) above
# IgG from a normal rabbit serum had no effect in the assay (.largecircle.).
# [10] = biological target: TGFβ-1 (Homo sapiens (Human), UniProt P01137, 125I label in most assays (chloramine T method in Example II; Bolton-Hunter labeled in Example VI); unlabeled in the experiment of Table I and in the growth assays); test: soluble peptide competitor of 125I-TGF-β binding to immobilized decorin
# Experimental: The wells were placed in a 37° C. incubator overnight and thereafter washed 3 times with 200 µl PBS (0.15M NaCl) per well to remove unbound decorin.
# Following the incubation, 50 µl of the free TGF-β supernatants were transferred to labeled tubes. The plate was washed 3 times with 0.05% Tween-20 in PBS (200 µl/well). The wells were then transferred into tubes for counting in a gamma counter.
molecule,measurement,setting,value
gelatin,percent of the radioactivity in the urea-eluted fraction,[1],2%
recombinant human decorin (from UniProt P07585),"3H-thymidine incorporation in CHO cells stimulated with 5 ng/ml TGFβ-1, half maximal neutralization",[2],5 µg/mL
TGFβ-1: commercially obtained transforming growth factor β-1,increase of [3H]thymidine incorporation,[3],50%
same,reduction of [3H]-thymidine incorporation,[4],50%
B1,inhibition of 125I-TGF-β binding to HepG2 cells,[5],inhibited
same,inhibition of 125I-TGF-β binding to L-M(tk-) cells,[6],inhibited
B2,effect on TGFβ-1-induced growth inhibition,[7],revealed an effect by decorin on the activity of TGFβ-1
same,inhibition of [125I]-TGFβ-1 binding to decorin-coated wells,[8],inhibited
same,"half maximal activity, neutralization of growth stimulatory activity of TGFβ-1",[9]; TGFβ-1 5 ng/ml,about 5 μg/ml
same,[3H]-thymidine incorporation with additional decorin,[9]; higher decorin concentrations,suppressed the [^3 H]-thymidine incorporation below the level observed without any added TGFβ-1
HLRVVQCSDLGL [peptide 16G],binding result,[10],binds
